Substitutions are numbered along the chain they refer to. One block for each binder: values may come before it.
Assays:
[1] = molecular target: T1, human CD3 (TCR/CD3 complex) on the cell surface (human, UniProt P07766 23-207; P09693 23-182; P04234 22-171; P20963 22-164); experiment: flow cytometry, Pan-T cells, 1 ug/mL
T1 construct: whole, on cells; also called CD3 on Pan-T cells; CD3 on Jurkat WT cells

[2] = molecular target: T1, human CD3 (TCR/CD3 complex) on the cell …; experiment: flow cytometry, Pan-T cells, 10 ug/mL
[3] = molecular target: T1, human CD3 (TCR/CD3 complex) on the cell …; experiment: flow cytometry, Jurkat WT cells, 1 ug/mL
[4] = molecular target: T1, human CD3 (TCR/CD3 complex) on the cell …; experiment: flow cytometry, Jurkat WT cells, 10 ug/mL
recombinant CD3 proteins [5] = molecular target: T2, recombinant CD3 proteins (UniProt P07766 23-126); experiment: Octet BLI, recombinant CD3; Full R^2 0.995
T2 construct: elsewhere it uses human CD3 E/D and E/G heterodimers

[6] = molecular target: T1, human CD3 (TCR/CD3 complex) on the cell …; experiment: flow cytometry, gMFI Jurkat WT over Jurkat TCRb KO, 1 ug/mL
[7] = molecular target: T1, human CD3 (TCR/CD3 complex) on the cell …; experiment: flow cytometry, gMFI Jurkat WT over Jurkat TCRb KO, 10 ug/mL
recombinant CD3 proteins [8] = molecular target: T2, recombinant CD3 proteins; experiment: Octet BLI, recombinant CD3; Full R^2 0.997
recombinant CD3 proteins [9] = molecular target: T2, recombinant CD3 proteins; experiment: Octet BLI, recombinant CD3; Full R^2 0.000*

T1 sequence (P07766 23-207, chain 1 of 4): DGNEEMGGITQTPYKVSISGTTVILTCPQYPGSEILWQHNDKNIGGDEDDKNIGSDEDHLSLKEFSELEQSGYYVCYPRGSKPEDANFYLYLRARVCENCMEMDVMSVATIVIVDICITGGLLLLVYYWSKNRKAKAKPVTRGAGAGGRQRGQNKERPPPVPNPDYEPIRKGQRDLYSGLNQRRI
T1 sequence (P09693 23-182, chain 2 of 4): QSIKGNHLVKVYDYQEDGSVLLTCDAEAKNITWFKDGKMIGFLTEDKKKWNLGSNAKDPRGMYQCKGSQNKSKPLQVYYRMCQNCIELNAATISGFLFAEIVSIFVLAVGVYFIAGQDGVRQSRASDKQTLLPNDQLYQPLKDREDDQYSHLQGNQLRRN
T1 sequence (P04234 22-171, chain 3 of 4): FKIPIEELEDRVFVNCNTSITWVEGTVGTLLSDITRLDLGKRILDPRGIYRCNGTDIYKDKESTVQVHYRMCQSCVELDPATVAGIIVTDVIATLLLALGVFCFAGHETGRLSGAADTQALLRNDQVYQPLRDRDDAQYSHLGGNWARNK
T1 sequence (P20963 22-164, chain 4 of 4): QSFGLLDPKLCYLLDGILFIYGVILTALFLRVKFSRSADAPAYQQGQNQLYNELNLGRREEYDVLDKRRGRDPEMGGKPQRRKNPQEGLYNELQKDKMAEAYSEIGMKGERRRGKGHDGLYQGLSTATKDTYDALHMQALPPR
T2 sequence (P07766 23-126): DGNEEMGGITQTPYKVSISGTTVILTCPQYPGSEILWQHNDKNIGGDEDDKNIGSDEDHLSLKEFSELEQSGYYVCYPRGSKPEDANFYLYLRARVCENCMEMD

% Positive [1]: 98.3%
gMFI [1]: 56000 gMFI
% Positive [2]: 99.7%
gMFI [2]: 161000 gMFI
gMFI [3]: 15700 gMFI
gMFI [4]: 26000 gMFI
Kd (recombinant CD3 proteins [5]): 78.4 nM
koff (recombinant CD3 proteins [5]): 0.0117 s⁻¹
kon (recombinant CD3 proteins [5]): 149000 M⁻¹ s⁻¹
Jurkat WT/KO (Fold) [6]: 5.3 fold
Jurkat WT/KO (Fold) [7]: 8.8 fold
B1: CD3 × CD33-BspAb126 (bispecific antibody)
chain 1: QVQLQESGPGLVKPSETLSLTCTVSGGSINSYYWSWIRQPAGKCLEWIGRIYTSGSTNYNPSLKSRVTMSVDTSKKQFSLKLSSVTAADTAVYYCARERISRLYFDYWGQGILVTVSSGGGGSGGGGSGGGGSGGGGSNFMLTQPHSVSESPGKTVTISCTRSSGSIASNYVQWYQQRPGSSPTTVIYEDNQRPSGVPDRFSGSIDSSSNSASLTISGLKTEDEADYYCQSYDRSNRVFGCGTKLTVLDKTHTCPPCPAPEFEGGPSVFLFPPKPKDTLMISRTPEVTCVVVDVSHEDPEVKFNWYVDGVEVHNAKTKPREEQYNSTYRVVSVLTVLHQDWLNGKEYKCKVSNKALPASIEKTISKAKGQPREPQVYTLPPCREEMTKNQVSLWCLVKGFYPSDIAVEWESNGQPENNYKTTPPVLDSDGSFFLYSKLTVDKSRWQQGNVFSCSVMHEALHNHYTQKSLSLSPGK
chain 2: EVQLVQSGAEVKKPGSSVKVSCKASGYTITDSNIHWVRQAPGQSLEWIGYIYPYNGGTDYNQKFKNRATLTVDNPTNTAYMELSSLRSEDTAFYYCVNGNPWLAYWGQGTLVTVSSASTKGPSVFPLAPSSKSTSGGTAALGCLVKDYFPEPVTVSWNSGALTSGVHTFPAVLQSSGLYSLSSVVTVPSSSLGTQTYICNVNHKPSNTKVDKRVEPKSCDKTHTCPPCPAPEFEGGPSVFLFPPKPKDTLMISRTPEVTCVVVDVSHEDPEVKFNWYVDGVEVHNAKTKPREEQYNSTYRVVSVLTVLHQDWLNGKEYKCKVSNKALPASIEKTISKAKGQPREPQVCTLPPSREEMTKNQVSLSCAVKGFYPSDIAVEWESNGQPENNYKTTPPVLDSDGSFFLVSKLTVDKSRWQQGNVFSCSVMHEALHNRFTQKSLSLSPGK
chain 3: DIQLTQSPSTLSASVGDRVTITCRASESLDNYGIRFLTWFQQKPGKAPKLLMYAASNQGSGVPSRFSGSGSGTEFTLTISSLQPDDFATYYCQQTKEVPWSFGQGTKVEVKRTVAAPSVFIFPPSDEQLKSGTASVVCLLNNFYPREAKVQWKVDNALQSGNSQESVTEQDSKDSTYSLSSTLTLSKADYEKHKVYACEVTHQGLSSPVTKSFNRGEC

% Positive [1]: 1.2%
gMFI [1]: 1770 gMFI
% Positive [2]: 0.7%
gMFI [2]: 1680 gMFI
gMFI [3]: 1650 gMFI
gMFI [4]: 1690 gMFI
Jurkat WT/KO (Fold) [6]: 0.9 fold
Jurkat WT/KO (Fold) [7]: 0.9 fold
B4: Gemtuzumab (antibody, V domains shown)
VH: EVQLVQSGAEVKKPGSSVKVSCKASGYTITDSNIHWVRQAPGQSLEWIGYIYPYNGGTDYNQKFKNRATLTVDNPTNTAYMELSSLRSEDTAFYYCVNGNPWLAYWGQGTLVTVSS
VL: DIQLTQSPSTLSASVGDRVTITCRASESLDNYGIRFLTWFQQKPGKAPKLLMYAASNQGSGVPSRFSGSGSGTEFTLTISSLQPDDFATYYCQQTKEVPWSFGQGTKVEVKR
notes: also called anti-CD33 control

Kd (recombinant CD3 proteins [9]): < 1 pM
koff (recombinant CD3 proteins [9]): < 1e-07 s⁻¹
kon (recombinant CD3 proteins [9]): 12500 M⁻¹ s⁻¹
B7: CD3 × CD33-BspAb124 (bispecific antibody)
chain 1: not shown
chain 2: B1 chain 2
chain 3: B1 chain 3

Further lines, the binder ahead of its results:

B2: CD3 × CD33-BspAb44 (bispecific antibody)
chain 1: EVQLVESGGGLVKPGGSLRLSCAASGFTFSRYSMNWVRQAPGKCLKWVSSISSSGSYKYYADSVKGRFTISRDNAKNSLYLQMNSLRAEDTAVYYCAREPPTLGMDYWGQGTLVTVSSGGGGSGGGGSGGGGSGGGGSNFMLTQPHSVSESPGKTVTISCTRSSGSIASNYVQWYQQRPGSSPTTVIYEDNQRPSGVPDRFSGSIDSSSNSASLTISGLKTEDEADYYCQSFDNSNRVFGCGTKLTVLDKTHTCPPCPAPEFEGGPSVFLFPPKPKDTLMISRTPEVTCVVVDVSHEDPEVKFNWYVDGVEVHNAKTKPREEQYNSTYRVVSVLTVLHQDWLNGKEYKCKVSNKALPASIEKTISKAKGQPREPQVYTLPPCREEMTKNQVSLWCLVKGFYPSDIAVEWESNGQPENNYKTTPPVLDSDGSFFLYSKLTVDKSRWQQGNVFSCSVMHEALHNHYTQKSLSLSPGK
chain 2: B1 chain 2
chain 3: B1 chain 3
% Positive [1]: 99.5%
gMFI [1]: 475000 gMFI
% Positive [2]: 99.5%
gMFI [2]: 508000 gMFI
gMFI [3]: 57500 gMFI
gMFI [4]: 54200 gMFI
Jurkat WT/KO (Fold) [6]: 13.1 fold
Jurkat WT/KO (Fold) [7]: 12.9 fold

B3: CD3 × CD33-BspAb48 (bispecific antibody)
chain 1: QVTLKESGPGILQPSQTLSLTCSFSGFSLSTFGMGVGWIRQPSGKCLEWLAHIWWDDDKYYNPALKSRLTISKDTSKNQVFLKIANVDTADTATYYCARLGYYPYWFFDVWGTGTTVTVSSGGGGSGGGGSGGGGSGGGGSNFMLTQPHSVSESPGKTVTIACTRSSGSIASNYVQWYQQRPGSSPTTVIYEDNQRPSGVPDRFSGSIDSSSNSASLTISGLKTEDEADYYCQSYDSSNQVFGCGTKLTVLDKTHTCPPCPAPEFEGGPSVFLFPPKPKDTLMISRTPEVTCVVVDVSHEDPEVKFNWYVDGVEVHNAKTKPREEQYNSTYRVVSVLTVLHQDWLNGKEYKCKVSNKALPASIEKTISKAKGQPREPQVYTLPPCREEMTKNQVSLWCLVKGFYPSDIAVEWESNGQPENNYKTTPPVLDSDGSFFLYSKLTVDKSRWQQGNVFSCSVMHEALHNHYTQKSLSLSPGK
chain 2: B1 chain 2
chain 3: B1 chain 3
% Positive [1]: 3.4%
gMFI [1]: 2870 gMFI
% Positive [2]: 82.2%
gMFI [2]: 12200 gMFI
gMFI [3]: 2260 gMFI
gMFI [4]: 5170 gMFI
Jurkat WT/KO (Fold) [6]: 1.1 fold
Jurkat WT/KO (Fold) [7]: 2.5 fold

B5: CD3 × CD33-BspAb79 (bispecific antibody)
chain 1: B1 chain 1 with N30S, T53A, N58Y, K76N, R99K, I100R, I112T, A225G
chain 2: B1 chain 2
chain 3: B1 chain 3
Kd (recombinant CD3 proteins [8]): 456 nM
koff (recombinant CD3 proteins [8]): 0.0829 s⁻¹
kon (recombinant CD3 proteins [8]): 182000 M⁻¹ s⁻¹

B6: CD3 × CD33-BspAb116 (bispecific antibody)
chain 1: NFMLTQPHSVSESPGKTVTISCTRSSGSIASNYVQWYQQRPGSSPTTVIYEDNQRPSGVPDRFSGSIDSSSNSASLTISGLKTEDEAYYYCQSFDSSNRVFGCGTKLTVLGGGGSGGGGSGGGGSGGGGSQVQLQESGPGLVKPSQTLSLTCTVSGGSISSGGYYWSWIRQHPGKCLEWIGYIYYSGSTYYNPSLKSRVTISVDTSKDQFSLKLSSVTAADTAVYYCARERKTSLPFDIWGQGTMVTVSSDKTHTCPPCPAPEFEGGPSVFLFPPKPKDTLMISRTPEVTCVVVDVSHEDPEVKFNWYVDGVEVHNAKTKPREEQYNSTYRVVSVLTVLHQDWLNGKEYKCKVSNKALPASIEKTISKAKGQPREPQVYTLPPCREEMTKNQVSLWCLVKGFYPSDIAVEWESNGQPENNYKTTPPVLDSDGSFFLYSKLTVDKSRWQQGNVFSCSVMHEALHNHYTQKSLSLSPGK
chain 2: B1 chain 2
chain 3: B1 chain 3
Kd (recombinant CD3 proteins [8]): 163 nM
koff (recombinant CD3 proteins [8]): 0.0168 s⁻¹
kon (recombinant CD3 proteins [8]): 103000 M⁻¹ s⁻¹

— patent US20260167721A1 (ABLEXIS, published 2026)
